Results as given in patent publication US12297265B2, “Antibody and use thereof” (SICHUAN KELUN-BIOTECH BIOPHARMACEUTICAL CO., LTD., priority 2018, dated 2025).

Target: human Claudin18.2 (Homo sapiens, UniProt P56856)
Experiment: Flow cytometry affinity to HEK293T-Claudin 18.2 cells
Type: binding
Design: expressed in transfected cells
Procedure: The affinity of 2C6.9-hz21 to human claudin 18.2 on cell membrane was detected using HEK293T-Claudin 18.2 cells, as follows. HEK293T-Claudin 18.2 cells were detached and centrifuged, followed by washing for twice with PBS. And then the cells were resuspended in PBS containing 1% BSA and were plated into 96-well tip bottom plate at 300000 cells per well in a volume of 50 μl for 20 wells in total. 2C6.9-hz21 or IMAB362 antibody was then added with 11 concentrations starting from 1000 nM with three-fold dilution. Human IgG was served as negative control. The reactions were mixed well and incubated for 1 h at 4° C. in the dark. Following by three times of washing with PBS, the FITC-labelled anti-human Fc secondary antibody (Biolegend, 409322) was added and incubated for 0.5h in the dark. Detection was performed by flow cytometry (Beckman, Cytoflex) after washing for three times with PBS.

- Max MFI: 156715.7
Substance: IMAB362: Zolbetuximab (IMAB362) developed by Astellas, human-mouse chimeric IgG1 antibody targeting Claudin 18.2; control antibody, sequences from CN 101312989 B [reference compound]
